Target: the molecule itself
Experiment: crystal structure; hanging drop, 293 K, 0.1 M trisodium citrate pH 5.5, 3% PEG 3350; space group P6(3)22; seven subunits in the asymmetric unit; 3.5 Å

B1: Hexachlorocyclohexane dehydrochlorinase LinA-type2 (enzyme, UniProt P51697 1-156, looked up)
chain: MSDLDRLASRAAIQDLYSDQLIGVDKRQEGRLASIWWDDAEWTIEGIGTYKGPEGALDLANNVLWPMYHETIHYGTNLRLEFVSADKVNGIGDVLCLGNLVEGNQSILIAAVYTNEYERRDGVWKFSKLNGCMNYFTPLAGIHFAPPGIHFAPSGA
notes: LinA-type2, gamma-hexachlorocyclohexane dehydrochlorinase variant obtained by PCR from metagenomic DNA of an HCH-contaminated soil (GenBank EU863871); It differs by 10 residues from LinA-type1 (= LinA-UT26 of Sphingobium japonicum UT26, 156 amino acids); The printed primers run from the ATG start codon to the last codon, without a stop codon; Homotrimer; also called -type2 protein; source: E. …
  stoichiometry N: 3

Reference: paper PMC3507683, “Crystal Structure of the Hexachlorocyclohexane Dehydrochlorinase (LinA-Type2): Mutational Analysis, Thermostability and Enantioselectivity” (PLoS ONE, 2012)
